Test results taken from the supplement of paper PMC9112550, “Optimization of the antimicrobial peptide Bac7 by deep mutational scanning” (BMC Biology, 2022).

These sequences were tested on Escherichia coli TOP10 (assay: shrunken log2 fold change of peptide-encoding DNA abundance (4.5 h post-induction vs induction); higher = less antimicrobial activity (less host growth inhibition)). Settings: time post-induction: 4.5 h; library: site-saturation at positions 5, 18, 19, 20.
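Further: peptides expressed intracellularly from a pBAD plasmid library in pooled LB shake-flask culture, induced with 0.3% L-arabinose, DNA abundance read by NGS, three biological replicates, DESeq2 with apeglm shrinkage.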

Sequence | shrunken log2 fold change
RRIRRRPPRLPRPRPRPLTHPRP | 0.275
RRIRRRPPRLPRPRPRPLVAPRP | 0.755
RRIRRRPPRLPRPRPRPLVGPRP | 0.239
RRIRRRPPRLPRPRPRPLWEPRP | 0.378
RRIRRRPPRLPRPRPRPLYAPRP | 0.0633
RRIRRRPPRLPRPRPRPLYGPRP | 0.0447
RRIRRRPPRLPRPRPRPLYPPRP | -0.0452
RRIRRRPPRLPRPRPRPMAIPRP | 0.202
RRIRRRPPRLPRPRPRPMANPRP | 0.136
RRIRRRPPRLPRPRPRPMAVPRP | -0.165
RRIRRRPPRLPRPRPRPMAYPRP | -0.193
RRIRRRPPRLPRPRPRPMCQPRP | 0.254
RRIRRRPPRLPRPRPRPMELPRP | 0.212
RRIRRRPPRLPRPRPRPMFCPRP | 0.235
RRIRRRPPRLPRPRPRPMFFPRP | -0.0274
RRIRRRPPRLPRPRPRPMFHPRP | -0.395
RRIRRRPPRLPRPRPRPMFIPRP | -0.275
RRIRRRPPRLPRPRPRPMFWPRP | 0.506
RRIRRRPPRLPRPRPRPMFYPRP | -0.229
RRIRRRPPRLPRPRPRPMGLPRP | -0.0617
RRIRRRPPRLPRPRPRPMGRPRP | 0.464
RRIRRRPPRLPRPRPRPMGWPRP | 0.637
RRIRRRPPRLPRPRPRPMHEPRP | 0.213
RRIRRRPPRLPRPRPRPMHQPRP | -0.105
RRIRRRPPRLPRPRPRPMHSPRP | 0.36

Sequence | shrunken log2 fold change
RRIRRRPPRLPRPRPRPMIMPRP | -0.323
RRIRRRPPRLPRPRPRPMIPPRP | -0.062
RRIRRRPPRLPRPRPRPMLGPRP | 0.15
RRIRRRPPRLPRPRPRPMMEPRP | -0.0732
RRIRRRPPRLPRPRPRPMMTPRP | 0.975
RRIRRRPPRLPRPRPRPMNEPRP | -0.0251
RRIRRRPPRLPRPRPRPMPGPRP | 0.243
RRIRRRPPRLPRPRPRPMPNPRP | 0.129
RRIRRRPPRLPRPRPRPMQGPRP | 0.031
RRIRRRPPRLPRPRPRPMRQPRP | 0.202
RRIRRRPPRLPRPRPRPMTAPRP | 0.0357
RRIRRRPPRLPRPRPRPMVAPRP | 0.363
RRIRRRPPRLPRPRPRPMVEPRP | -0.257
RRIRRRPPRLPRPRPRPMVKPRP | 0.0693
RRIRRRPPRLPRPRPRPMWNPRP | 0.00386
RRIRRRPPRLPRPRPRPMYCPRP | -0.574
RRIRRRPPRLPRPRPRPMYQPRP | -0.058
RRIRRRPPRLPRPRPRPNAQPRP | 0.287
RRIRRRPPRLPRPRPRPNAYPRP | 0.0409
RRIRRRPPRLPRPRPRPNCFPRP | 0.176
RRIRRRPPRLPRPRPRPNDGPRP | 0.0979
RRIRRRPPRLPRPRPRPNEDPRP | 0.352
RRIRRRPPRLPRPRPRPNGSPRP | 0.183
RRIRRRPPRLPRPRPRPNHFPRP | -0.0507
RRIRRRPPRLPRPRPRPNHMPRP | -0.299

Sequence | shrunken log2 fold change
RRIRRRPPRLPRPRPRPNHVPRP | -0.443
RRIRRRPPRLPRPRPRPNIAPRP | -0.109
RRIRRRPPRLPRPRPRPNIFPRP | -0.0516
RRIRRRPPRLPRPRPRPNIWPRP | 0.134
RRIRRRPPRLPRPRPRPNKMPRP | -0.0549
RRIRRRPPRLPRPRPRPNLEPRP | 0.442
RRIRRRPPRLPRPRPRPNLIPRP | -0.221
RRIRRRPPRLPRPRPRPNMAPRP | 0.0119
RRIRRRPPRLPRPRPRPNMGPRP | -0.108
RRIRRRPPRLPRPRPRPNNIPRP | -0.556
RRIRRRPPRLPRPRPRPNQFPRP | 0.119
RRIRRRPPRLPRPRPRPNRMPRP | -0.303
RRIRRRPPRLPRPRPRPNSAPRP | 0.282
RRIRRRPPRLPRPRPRPNSKPRP | -0.00313
RRIRRRPPRLPRPRPRPNSVPRP | -0.0617
RRIRRRPPRLPRPRPRPNVQPRP | 0.0253
RRIRRRPPRLPRPRPRPNVSPRP | 0.137
RRIRRRPPRLPRPRPRPNYRPRP | 0.0832
RRIRRRPPRLPRPRPRPPAEPRP | 0.851
RRIRRRPPRLPRPRPRPPAGPRP | 0.753
RRIRRRPPRLPRPRPRPPAMPRP | 0.814
RRIRRRPPRLPRPRPRPPCCPRP | 0.623
RRIRRRPPRLPRPRPRPPCDPRP | 1.03
RRIRRRPPRLPRPRPRPPCHPRP | 0.761
RRIRRRPPRLPRPRPRPPDLPRP | 0.66

Sequence | shrunken log2 fold change
RRIRRRPPRLPRPRPRPPEDPRP | 1.34
RRIRRRPPRLPRPRPRPPEWPRP | 0.539
RRIRRRPPRLPRPRPRPPGHPRP | 0.507
RRIRRRPPRLPRPRPRPPGIPRP | 0.612
RRIRRRPPRLPRPRPRPPHPPRP | 0.886
RRIRRRPPRLPRPRPRPPIYPRP | 0.786
RRIRRRPPRLPRPRPRPPKHPRP | 0.39
RRIRRRPPRLPRPRPRPPMAPRP | 0.487
RRIRRRPPRLPRPRPRPPMKPRP | 0.522
RRIRRRPPRLPRPRPRPPMPPRP | 0.568
RRIRRRPPRLPRPRPRPPPAPRP | 1.28
RRIRRRPPRLPRPRPRPPPSPRP | 1.21
RRIRRRPPRLPRPRPRPPRHPRP | 1.08
RRIRRRPPRLPRPRPRPPRQPRP | 1.04
RRIRRRPPRLPRPRPRPPSVPRP | 0.545
RRIRRRPPRLPRPRPRPPTEPRP | 0.315
RRIRRRPPRLPRPRPRPPTMPRP | 0.374
RRIRRRPPRLPRPRPRPPTTPRP | 0.445
RRIRRRPPRLPRPRPRPPVVPRP | 0.26
RRIRRRPPRLPRPRPRPPWSPRP | 0.421
RRIRRRPPRLPRPRPRPPYPPRP | 0.245
RRIRRRPPRLPRPRPRPQADPRP | 0.312
RRIRRRPPRLPRPRPRPQALPRP | 0.128
RRIRRRPPRLPRPRPRPQCSPRP | 0.109
RRIRRRPPRLPRPRPRPQDAPRP | 0.427

Sequence | shrunken log2 fold change
RRIRRRPPRLPRPRPRPQEQPRP | -0.0166
RRIRRRPPRLPRPRPRPQGNPRP | 0.0869
RRIRRRPPRLPRPRPRPQHFPRP | 0.256
RRIRRRPPRLPRPRPRPQKAPRP | 0.0122
RRIRRRPPRLPRPRPRPQKDPRP | -0.151
RRIRRRPPRLPRPRPRPQKNPRP | 0.204
RRIRRRPPRLPRPRPRPQKQPRP | 0.338
RRIRRRPPRLPRPRPRPQLCPRP | 0.559
RRIRRRPPRLPRPRPRPQLYPRP | 0.101
RRIRRRPPRLPRPRPRPQMAPRP | 0.455
RRIRRRPPRLPRPRPRPQNCPRP | -0.275
RRIRRRPPRLPRPRPRPQPMPRP | 0.606
RRIRRRPPRLPRPRPRPQPPPRP | 0.413
RRIRRRPPRLPRPRPRPQRSPRP | 0.302
RRIRRRPPRLPRPRPRPQSTPRP | -0.095
RRIRRRPPRLPRPRPRPQVEPRP | 0.0147
RRIRRRPPRLPRPRPRPQWWPRP | 0.297
RRIRRRPPRLPRPRPRPRENPRP | 0.135
RRIRRRPPRLPRPRPRPREQPRP | 0.803
RRIRRRPPRLPRPRPRPRGCPRP | 0.984
RRIRRRPPRLPRPRPRPRGMPRP | 0.907
RRIRRRPPRLPRPRPRPRHEPRP | 0.148
RRIRRRPPRLPRPRPRPRHMPRP | -0.0552
RRIRRRPPRLPRPRPRPRICPRP | 0.414
RRIRRRPPRLPRPRPRPRINPRP | 0.125

Sequence | shrunken log2 fold change
RRIRRRPPRLPRPRPRPRKVPRP | 0.602
RRIRRRPPRLPRPRPRPRLCPRP | 0.472
RRIRRRPPRLPRPRPRPRLTPRP | 0.439
RRIRRRPPRLPRPRPRPRQAPRP | 0.801
RRIRRRPPRLPRPRPRPRVLPRP | 0.349
RRIRRRPPRLPRPRPRPRVMPRP | 0.413
RRIRRRPPRLPRPRPRPRVPPRP | 0.745
RRIRRRPPRLPRPRPRPRWRPRP | 0.832
RRIRRRPPRLPRPRPRPRYQPRP | 0.0511
RRIRRRPPRLPRPRPRPRYRPRP | -0.0166
RRIRRRPPRLPRPRPRPRYSPRP | -0.49
RRIRRRPPRLPRPRPRPSCIPRP | -0.596
RRIRRRPPRLPRPRPRPSCTPRP | 0.0387
RRIRRRPPRLPRPRPRPSDLPRP | 0.0119
RRIRRRPPRLPRPRPRPSDYPRP | -0.185
RRIRRRPPRLPRPRPRPSEMPRP | 0.0772
RRIRRRPPRLPRPRPRPSETPRP | 0.493
RRIRRRPPRLPRPRPRPSFNPRP | -0.192
RRIRRRPPRLPRPRPRPSGNPRP | 0.122
RRIRRRPPRLPRPRPRPSGPPRP | -0.0409
RRIRRRPPRLPRPRPRPSGSPRP | -0.0977
RRIRRRPPRLPRPRPRPSGTPRP | 0.494
RRIRRRPPRLPRPRPRPSIDPRP | -0.107
RRIRRRPPRLPRPRPRPSLGPRP | 0.261
RRIRRRPPRLPRPRPRPSLRPRP | -0.0199
